Five molecules from patent US20030199423A1 (published 2003) can be followed below.

The labels stand for the following.
T1: ICAM-R mutant F21V/AS (human, UniProt P32942 30-547)
T1 construct: on transfected COS cells
T1 chain: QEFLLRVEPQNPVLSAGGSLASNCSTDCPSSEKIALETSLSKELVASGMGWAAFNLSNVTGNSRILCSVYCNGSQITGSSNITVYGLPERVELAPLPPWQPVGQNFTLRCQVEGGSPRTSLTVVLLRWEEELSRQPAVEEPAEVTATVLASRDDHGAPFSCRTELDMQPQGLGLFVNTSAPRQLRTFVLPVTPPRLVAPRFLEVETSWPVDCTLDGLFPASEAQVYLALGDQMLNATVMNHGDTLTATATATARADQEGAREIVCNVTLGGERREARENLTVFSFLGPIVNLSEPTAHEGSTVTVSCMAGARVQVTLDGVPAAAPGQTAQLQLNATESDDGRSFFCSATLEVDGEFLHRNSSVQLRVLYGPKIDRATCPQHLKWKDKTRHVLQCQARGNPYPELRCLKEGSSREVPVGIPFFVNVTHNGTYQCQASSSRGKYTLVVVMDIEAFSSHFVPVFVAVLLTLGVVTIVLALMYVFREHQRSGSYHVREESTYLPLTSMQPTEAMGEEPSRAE

T2: macaque ICAM-R on peripheral blood leukocytes (Macaca fascicularis, UniProt A0A2K5TJA8 30-547)
T2 construct: whole, on cells; also called monkey PBL; macaque leukocytes
T2 sequence: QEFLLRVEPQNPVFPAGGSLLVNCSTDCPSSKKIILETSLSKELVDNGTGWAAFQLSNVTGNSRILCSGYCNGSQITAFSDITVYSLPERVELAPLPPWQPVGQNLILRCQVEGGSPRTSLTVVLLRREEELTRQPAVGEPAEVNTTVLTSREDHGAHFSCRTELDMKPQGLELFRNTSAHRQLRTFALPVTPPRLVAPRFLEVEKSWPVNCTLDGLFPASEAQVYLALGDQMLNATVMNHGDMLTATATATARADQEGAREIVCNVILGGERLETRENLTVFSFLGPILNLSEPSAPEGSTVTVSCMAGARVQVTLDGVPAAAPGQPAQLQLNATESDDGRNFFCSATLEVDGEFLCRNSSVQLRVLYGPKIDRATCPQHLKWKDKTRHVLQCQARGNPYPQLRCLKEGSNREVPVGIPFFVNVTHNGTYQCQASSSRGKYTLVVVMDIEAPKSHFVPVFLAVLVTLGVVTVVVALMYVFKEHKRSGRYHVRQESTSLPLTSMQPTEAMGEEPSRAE

T3: ICAM-R/IgG chimera, wild type (human, UniProt P32942 30-485)
T3 construct: also called ICAM-3/IgG; ICAM-R/Ig fusion protein
T3 chain: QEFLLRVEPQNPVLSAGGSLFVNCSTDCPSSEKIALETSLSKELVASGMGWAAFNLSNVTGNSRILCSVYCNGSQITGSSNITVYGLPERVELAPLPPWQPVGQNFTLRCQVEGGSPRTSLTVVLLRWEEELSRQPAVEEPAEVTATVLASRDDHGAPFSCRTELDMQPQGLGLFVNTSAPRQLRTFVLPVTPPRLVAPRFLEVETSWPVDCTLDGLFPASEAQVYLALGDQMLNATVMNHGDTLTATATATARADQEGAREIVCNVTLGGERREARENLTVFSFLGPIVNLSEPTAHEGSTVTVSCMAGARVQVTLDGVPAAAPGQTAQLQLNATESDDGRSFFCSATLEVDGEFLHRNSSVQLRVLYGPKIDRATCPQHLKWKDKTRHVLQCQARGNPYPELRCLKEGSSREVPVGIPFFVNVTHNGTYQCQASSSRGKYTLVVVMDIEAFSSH

B1: ICAM-2/IgG fusion protein (Fc fusion, not shown: a dimerising Fc or GST)
chain: KVFEVHVRPKKLAVEPKGSLEVNCSTTCNQPEVGGLETSLDKILLDEQAQWKHYLVSNISHDTVLQCHFTCSGKQESMNSNVSVYQPPRQVILTLQPTLVAVGKSFTIECRVPTVEPLDSLTLFLFRGNETLHYETFGKAAPAPQEATATFNSTADREDGHRNFSCLAVLDLMSRGGNIFHKHSAPKMLEIYEPVSDSQ
B2: soluble human ICAM-R (receptor)
chain: T3 chain
notes: baculovirus, Sf-9 cells, lentil lectin purified; also called shICAM-R; soluble ICAM-R
B3: monoclonal antibody ICR-8.1 (antibody, mouse IgG1, V domains shown)
VH: EIQLQQTGPELVKPGASVKISCKASGYSFTDCIILWVKQSHGKGLEWIGKINPYFGTTTYNLKFKGKATLTVDKSSSTAHMQLNSLTSEDSAVYYCARKEAYPDAMDYWGQGTSVTVSS
VL: DAVMTQTPLSLPVSLGDQASISCRSSQSLVHSNGDTYLHWYLQKPGQSPQLLIYKVSNRFSGVPDRFSGSGSGTDFTLKLSRVEAEDLGVYFCSQSTHVPYTFGGGTKLEIK
notes: murine IgG1, kappa; hybridoma ATCC HB 11232; also called 46D7E
B4: monoclonal antibody ICR-1.1 (antibody, mouse IgG2a, V domains shown)
VH: QVQLQQSGAELAKPGASVKMSCKASGYTFTVYWMHWVKQRPGQGLEWIGYINPNTDYTEYNQRFQDKATLTADKSSSTAYMQLSSLTSEDSAVYYCARWGGNSYGLDYWGQGTSVTVSS
VL: QIVLTQSPALMSASPGEKVTMTCSASSSVSYIYWYQQKPRSSPKPWIYLTSNLASGVPARFSGSGSGASYSLTISIMEAEDAATYYCQQWKSIPLTFGAGTKLELK
notes: murine IgG2a, kappa; hybridoma ATCC HB 11053; also called 26E3D; 26E3D-1
B5: humanized ICR-1.1 antibody HuVHK/HuVKP (antibody, human IgG4, V domains shown)
VH: QVQLVQSGAEVKKPGASVKVSCKASGYTFTVYWMHWVRQAPGQGLEWMGYINPNTDYTEYNQRFQDRVTITADKSTSTAYMELSSLRSEDTAVYYCARWGGNSYGLDYWGQGTLVTVSS
VL: DIQMTQSPSSLSASVGDRVTITCSASSSVSYIYWYQQKPGKAPKPLIYLTSNLASGVPSRFSGSGSGTDFTLTISSLQPEDFATYYCQQWKSIPLTFGQGTKLEIK
notes: human IgG4, human kappa

One experiment has as its target Mac-1 (CD18/CD11b) (UniProt P11215 17-1152; P05107 23-769). The experiment in a line: neutrophil adhesion to coated chimeras with blocking antibodies.
Another experiment has as its target T4, Gp 150,95 (CD18/CD11c) (UniProt P20702 20-1163; P05107 23-769).
T4 construct: purified, coated on plastic
The experiment in a line: shICAM-R coated fluorescent beads on wells coated with purified Gp 150,95.

Another experiment has as its target T1, ICAM-R mutant F21V/AS. Briefly: FACS on COS transfectants.
Experiment [1] deals with T2, macaque ICAM-R on peripheral blood …. The experiment in a line: FACS on Macaca fascicularis PBL.
Experiment [2] addresses T3, ICAM-R/IgG chimera, wild type. Briefly: ELISA on ICAM-R/Ig fusion protein.
The experiment “soluble human ICAM-R” addresses B2. The experiment in a line: ELISA on coated baculovirus soluble ICAM-R.

T4 sequence (P20702 20-1163 limits assumed, chain 1 of 2): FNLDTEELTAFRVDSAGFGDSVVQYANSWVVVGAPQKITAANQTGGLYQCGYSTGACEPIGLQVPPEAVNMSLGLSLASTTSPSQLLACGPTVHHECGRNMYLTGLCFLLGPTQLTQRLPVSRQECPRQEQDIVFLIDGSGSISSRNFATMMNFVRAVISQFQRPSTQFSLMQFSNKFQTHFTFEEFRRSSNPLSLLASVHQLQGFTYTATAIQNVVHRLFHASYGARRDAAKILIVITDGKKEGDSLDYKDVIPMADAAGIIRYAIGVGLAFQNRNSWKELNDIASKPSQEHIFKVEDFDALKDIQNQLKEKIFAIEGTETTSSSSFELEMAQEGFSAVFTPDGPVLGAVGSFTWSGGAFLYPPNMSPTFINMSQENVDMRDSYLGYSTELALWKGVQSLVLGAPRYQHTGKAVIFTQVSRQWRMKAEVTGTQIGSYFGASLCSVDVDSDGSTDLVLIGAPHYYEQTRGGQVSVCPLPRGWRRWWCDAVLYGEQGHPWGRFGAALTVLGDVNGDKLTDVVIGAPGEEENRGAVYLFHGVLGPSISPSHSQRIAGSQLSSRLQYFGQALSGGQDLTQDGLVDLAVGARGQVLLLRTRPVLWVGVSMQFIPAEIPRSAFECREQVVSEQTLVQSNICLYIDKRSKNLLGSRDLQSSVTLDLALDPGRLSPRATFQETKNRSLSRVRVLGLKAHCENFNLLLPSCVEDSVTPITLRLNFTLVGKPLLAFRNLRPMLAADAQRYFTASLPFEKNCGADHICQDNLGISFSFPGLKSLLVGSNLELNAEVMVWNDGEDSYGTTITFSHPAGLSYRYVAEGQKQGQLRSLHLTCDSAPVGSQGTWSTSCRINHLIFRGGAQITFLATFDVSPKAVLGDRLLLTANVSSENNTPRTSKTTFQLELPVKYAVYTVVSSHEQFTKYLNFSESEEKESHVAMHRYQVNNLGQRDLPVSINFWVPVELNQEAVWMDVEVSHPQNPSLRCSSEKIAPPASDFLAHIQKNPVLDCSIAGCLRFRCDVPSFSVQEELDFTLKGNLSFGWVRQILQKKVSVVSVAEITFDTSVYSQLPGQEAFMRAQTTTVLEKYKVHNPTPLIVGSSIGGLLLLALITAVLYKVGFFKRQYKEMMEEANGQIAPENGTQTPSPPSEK
T4 sequence (P05107 23-769 limits assumed, chain 2 of 2): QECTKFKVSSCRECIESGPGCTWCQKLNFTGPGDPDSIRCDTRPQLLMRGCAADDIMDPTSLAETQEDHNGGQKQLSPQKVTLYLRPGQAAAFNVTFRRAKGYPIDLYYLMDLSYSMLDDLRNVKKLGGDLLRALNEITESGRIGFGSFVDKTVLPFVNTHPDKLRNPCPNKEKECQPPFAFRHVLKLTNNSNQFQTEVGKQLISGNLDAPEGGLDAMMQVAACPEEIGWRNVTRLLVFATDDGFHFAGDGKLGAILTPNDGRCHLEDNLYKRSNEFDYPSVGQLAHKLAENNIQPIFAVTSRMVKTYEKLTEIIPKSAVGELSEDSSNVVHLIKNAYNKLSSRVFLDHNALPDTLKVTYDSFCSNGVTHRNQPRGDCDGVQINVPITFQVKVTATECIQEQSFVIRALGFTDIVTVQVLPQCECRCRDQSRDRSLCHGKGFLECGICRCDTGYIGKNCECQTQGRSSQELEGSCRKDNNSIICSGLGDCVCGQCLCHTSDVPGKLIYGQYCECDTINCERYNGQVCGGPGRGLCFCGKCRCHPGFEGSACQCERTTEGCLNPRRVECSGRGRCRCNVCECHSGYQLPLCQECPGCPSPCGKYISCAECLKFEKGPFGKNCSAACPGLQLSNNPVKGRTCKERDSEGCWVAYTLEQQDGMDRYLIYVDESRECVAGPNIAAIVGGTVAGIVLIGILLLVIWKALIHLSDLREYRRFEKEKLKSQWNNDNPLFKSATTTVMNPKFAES

As to B1, the binding result with Mac-1 (CD18/CD11b) is recorded as “binds”. With B2, the binding result in the experiment with Gp 150,95 (CD18/CD11c) is “binds”.

For B3, the binding result (with ICAM-R mutant F21V/AS; in experiment [1]) was “no binding” each time. Turning to B4, the binding result (with ICAM-R mutant F21V/AS; in experiment [1]) was “no binding” each time. Regarding B5, the “binding relative to the chimeric antibody (MuVH/MuVK)” value (in experiment [2]; with soluble human ICAM-R) was at most 50 % difference in each case.
